Where two headings read alike, the source gives them in different places. fluorescein‑5‑maleimide = fluorescein-5-maleimide Bounds are passed on as bounds.

The Kd is a measure of binding affinity in units of concentration. As a reminder, the IC50 is the concentration at which inhibition is half-maximal.

Assay [1] has as its target T1, wild-type CCR1 expressed on HEK293 cells (human, UniProt P32246 1-355).
T1 sequence (looked up): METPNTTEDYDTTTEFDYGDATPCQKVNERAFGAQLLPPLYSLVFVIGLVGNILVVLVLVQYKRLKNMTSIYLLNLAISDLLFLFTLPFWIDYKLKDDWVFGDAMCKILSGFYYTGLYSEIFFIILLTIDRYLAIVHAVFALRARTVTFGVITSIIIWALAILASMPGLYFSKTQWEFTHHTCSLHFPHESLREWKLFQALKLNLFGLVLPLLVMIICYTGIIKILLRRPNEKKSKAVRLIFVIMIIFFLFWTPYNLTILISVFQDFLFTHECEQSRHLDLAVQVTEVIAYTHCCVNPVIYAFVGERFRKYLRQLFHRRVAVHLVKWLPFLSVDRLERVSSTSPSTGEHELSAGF
Briefly: cell-based or functional assay.

For assay [2], the target named is T2, CCR1 solubilized from HEK293 membranes and purified in detergent/lipid micelles (human, UniProt P32246 1-355).
T2 sequence (looked up): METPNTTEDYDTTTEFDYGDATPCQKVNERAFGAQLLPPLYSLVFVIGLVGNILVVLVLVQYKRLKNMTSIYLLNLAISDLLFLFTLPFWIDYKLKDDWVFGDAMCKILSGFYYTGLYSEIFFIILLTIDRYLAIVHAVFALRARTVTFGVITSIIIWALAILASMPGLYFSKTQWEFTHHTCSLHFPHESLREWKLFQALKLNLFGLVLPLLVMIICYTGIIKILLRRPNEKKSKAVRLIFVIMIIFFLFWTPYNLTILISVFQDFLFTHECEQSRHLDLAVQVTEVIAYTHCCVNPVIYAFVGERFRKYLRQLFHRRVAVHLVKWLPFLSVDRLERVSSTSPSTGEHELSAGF
Briefly: fluorescence polarisation.

Assay [3] addresses T2, CCR1 solubilized from HEK293 membranes …. Briefly: fluorescence polarisation. The source holds these as a separate data set. Background: Polarisation of emitted light reports the rotation of a fluorescent probe.
The target is the same in assay [4]. The experiment in a line: fluorescence polarisation. This is another data set of the same source.
For assay [5] the target is unchanged. Briefly: fluorescence polarisation. This is another data set of the same source.
Assay [6] has the same target. Briefly: fluorescence polarisation. The source holds these as a separate data set.
Assay [7] addresses T1, wild-type CCR1 expressed on HEK293 cells. Briefly: radioligand binding.

B1: CCL7 (ligand)
chain: not shown
With B1, the “EC50 of calcium mobilization in CCR1-transfected HEK293 cells (FLIPR Calcium 4)” value in assay [1] came to 8 nM.

B2: CCL14-fluorescein (ligand)
chain: GPYHPSECCFTYTTYKIPRQRIMDYYETNSQCSKPGIVFITKRGHSVCTNPSDKWVQDYIKDMKENC(fluorescein‑5‑maleimide)
B2: the Kd was above 1000 nM in assay [2]; above 1000 nM in assay [3]; above 1000 nM in assay [4]; 21 nM in assay [5]; 35 nM in assay [6].

B3: wild-type CCL3 (ligand, UniProt P10147 24-92, looked up)
chain: SLAADTPTACCFSYTSRQIPQNFIADYFETSSQCSKPGVIFLTKRSRQVCADPSEEWVQKYVSDLELSA
As for B3, in assay [7], the IC50 worked out at 0.9 nM.

For the origin of these results see paper PMC2706832 (Protein expression and purification, 2009).
